*1 amine or outer side, *2 acyl side, *3 side chain or, on linkers, in order; H or OH if unused. Where a SMILES comes first, the peptide text is derived from it. Primed or numbered codes have the meaning given here. Where no end group is shown, it is not given here. [ ]: non-standard residue; d: D form. The star is where a group is joined. Pqa = 4-oxo-6-(1-piperazinyl)-3(4H)-quinazoline-acetic acid (CAS 889958-08-1), O=C(Cn1cnc2ccc(N3CCN([*:1])CC3)cc2c1=O)[*:2]; Pqa″ = 4-oxo-6-(1-piperazinyl)-3(4H)-quinazoline-acetic acid, O=C(Cn1cnc2ccc(N3CCN([*:1])CC3)cc2c1=O)[*:2]; Tyr(2,6-F2) = N[C@@H](Cc1c(F)cc(O)cc1F)C(=O)O; NMeR = CN[C@@H](CCCNC(=N)N)C(=O)O; Piv = CC(C)(C)C(=O)*; Bz = O=C(c1ccccc1)*
How the values were obtained:
[1] = target: T1, Y2R (Homo sapiens, UniProt P49146); details: values of WO 2007/065808; read-out: Y2R EC50 (nM) cAMP; cited from earlier work
T1 sequence (P49146 1-381): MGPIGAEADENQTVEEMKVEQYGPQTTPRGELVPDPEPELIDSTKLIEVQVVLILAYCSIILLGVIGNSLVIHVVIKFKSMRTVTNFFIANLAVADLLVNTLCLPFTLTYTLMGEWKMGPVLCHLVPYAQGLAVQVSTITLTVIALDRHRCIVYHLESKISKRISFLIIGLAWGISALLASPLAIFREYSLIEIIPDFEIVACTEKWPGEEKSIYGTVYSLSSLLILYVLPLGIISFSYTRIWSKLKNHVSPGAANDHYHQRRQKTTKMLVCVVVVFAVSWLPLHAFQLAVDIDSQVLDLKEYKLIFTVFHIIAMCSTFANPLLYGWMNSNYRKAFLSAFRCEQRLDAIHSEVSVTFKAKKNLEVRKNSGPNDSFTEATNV

[2] = test system: H322M cells; assay: CytoTox-Glo cytotoxicity assay; type: cell-based, human; details: for activity upon conjugation to digoxygenin: CytoTox-Glo; for biological activity of digoxigenated peptide complexed with digoxigenin binding antibody derivatives: cytotoxicity and viability assays, tumor cell lines
Experimental: To evaluate whether additions or alterations of the peptide Melittin, FALLv1 and FALLv2 by digoxygenin alters its biological activity, we performed in vitro assays. As these peptides are cytotoxic, their biological activity can easily be analyzed by monitoring the number of dead cells. To measure this number, the CytoTox-Glo assay (Promega Madison, WI) was used. Table 2 lists results of these CytoTox-Glo-assays that were performed to assess the biological activity of the Melittin, Fallv1 and Fallv2 peptides and their DIG-modified variants. For these assays, H322M cells were seeded at a density of 15.000 cells per well in 96 well plates. The cells were incubated for 24 hours at 37° C., 5% CO2 and 85% humidity in RPMI with 10% FCS, Na+ Pyrovate, L-Glutamine and NEAA mix. The peptide and it's DIG-modified variant were then added to the cells in the concentrations indicated. The cells were incubated for further 48 hours. After this period, the cells were treated with the CytoTox-Glo-assay reagent according to the manufacturers instructions. In brief, this assay detects dead cells via the presence of a protease in the medium that cleaves a […] peptide in the reagent. The luminescence of this assay therefore represents dead cells. The 96 well plates were then analyzed in a InfiniteF200 luminescence reader (Tecan Austria, Groding). […] Not only covalent coupling to haptens, but also complexation of peptides to large antibody molecules may influence their biological activity. Because IgG-derived molecules are large proteins (10-40 fold the size of peptides), it cannot a priori be excluded that such molecules may sterically hinder accessibility of peptide and therefore interfere with biological activity. To address this topic, we analyzed the in vitro activity of peptide-antibody complexes for the cytotoxic peptides FALLv1 and Fam5b. Again, we made use of the fact that these peptide are cytotoxic towards tumor cell lines and therefore tested their functionality in cytotoxicity and viability assays as described above. […] Moreover, utilizing bispecific antibodies for targeting such peptides to tumor cells, we could show increased peptide-mediated cytotoxicity towards targeted cells compared to nontargeted cells (as shown in PCT/EP2010/004051).

In the case of “IK-Pqa-RHYLNLVTRQ(N-methyl)RW (IK[Pqa]RHYLNLVTRQ[NMeR]W; ends and bridges not checked) [Example 21]”, the EC50 [1] is listed as 1.06 nM.
In the case of “IK-Pqa-RHYLNLVTRQ(N-methyl)R(2)Nal [Example 23]”, the EC50 [1] is given as 2.4 nM.
For “Pentyl-IK-Pqa-RHYLNWVTRQ(N-methyl)RY (Pentyl-IK[Pqa″]RHYLNWVTRQ[NMeR]Y) [Example 29]”, the EC50 [1] is listed as 0.51 nM.
In the case of `CC[C@H](C)[C@H](NC(=O)[C@H](CCCCN)NC(=O)[C@H](CCC(=O)O)NC(=O)[C@H](CCCCN)NC(=O)[C@H](CO)NC(=O)[C@H](CCCCN)NC(=O)[C@H](CCCNC(=N)N)NC(=O)[C@H](Cc1ccccc1)NC(=O)[C@H](Cc1ccccc1)NC(=O)[C@H](CC(=O)O)NC(=O)CNC(=O)[C@H](CC(C)C)NC(=O)[C@H](CC(C)C)NC(=O)[C@H](C)NC(=O)[C@@H](N)Cc1ccccc1)C(=O)NCC(=O)N[C@@H](CCCCN)C(=O)N[C@@H](CCC(=O)O)C(=O)N[C@@H](Cc1ccccc1)C(=O)N[C@@H](CCCCN)C(=O)N[C@@H](CCCNC(=N)N)C(=O)N[C@H](C(=O)N[C@H](C(=O)N[C@@H](CCC(N)=O)C(=O)N[C@@H](CCCNC(=N)N)C(=O)N[C@H](C(=O)N[C@@H](CCCCN)C(=O)N[C@@H](CC(=O)O)C(=O)N[C@@H](Cc1ccccc1)C(=O)N[C@@H](CC(C)C)C(=O)N[C@@H](CCCNC(=N)N)C(=O)N[C@@H](CC(N)=O)C(=O)N[C@@H](CC(C)C)C(=O)N[C@H](C(=O)N1CCC[C@H]1C(=O)N[C@@H](CCCNC(=N)N)C(=O)N[C@H](C(=O)N[C@@H](CCC(=O)O)C(=O)N[C@@H](CO)C(N)=O)[C@@H](C)O)C(C)C)[C@@H](C)CC)C(C)C)[C@@H](C)CC` [FALLv1], the “activity upon conjugation to digoxygenin” value [2] is reported as “similarly retained” and the “biological activity of digoxigenated peptide complexed with digoxigenin binding antibody derivatives” value [2] is reported as “retain their biological activities”.
For “IK-Pqa-RHYLNLVTRQ(N-methyl)R(3.4-diC1)Phe [Example 19]”, the EC50 [1] is given as 1.47 nM.
For “IK-Pqa-RHYLNLVTRQ(N-methyl)RF(O—CH3) [Example 11]”, the EC50 [1] is listed as 0.55 nM.
With “QHRYQQLGAGLKVLFKKTHRILRRLFNLAK (listed as Homo sapiens) [Fam5b]” the “biological activity of digoxigenated peptide complexed with digoxigenin binding antibody derivatives” value [2] was “retain their biological activities”.
In the case of “Benzoyl-IK-Pqa-RHYLNWVTRQ(N-methyl)RY (Bz-IK[Pqa]RHYLNWVTRQ[NMeR]Y; ends and bridges not checked) [Example 32]”, the EC50 [1] is given as 0.66 nM.
For “Trimetylacetyl-IK-Pqa-RHYLNWVTRQ(N-methyl)RY (Piv-IK[Pqa″]RHYLNWVTRQ[NMeR]Y) [Example 30]”, the EC50 [1] is given as 0.26 nM.
In the case of “IK-Pqa-RHYLNLVTRQ(N-methyl)RCha [Example 20]”, the EC50 [1] is given as 0.5 nM.
For “IK-Pqa-RHYLNLVTRQ(N-methyl)R(1)Nal [Example 22]”, the EC50 [1] is listed as 1.14 nM.
In the case of “IK-Pqa-RHYLNLVTRQR-C-α-Me-Tyr [Example 24]”, the EC50 [1] is listed as 1.35 nM.
For “Cyclohexyl-IK-Pqa-RHYLNWVTRQ(N-methyl)RY (cyclohexyl-IK[Pqa]RHYLNWVTRQ[NMeR]Y; ends and bridges not checked) [Example 31]”, the EC50 [1] is listed as 1.37 nM.
In the case of “IK-Pqa-RHYLNLVTRQ(N-methyl)RY [Example 5]”, the EC50 [1] is given as 0.42 nM.
In the case of “IK-Pqa-RHYLNWVTRQ(N-methyl)RY (IK[Pqa]RHYLNWVTRQ[NMeR]Y; ends and bridges not checked) [Example 25]”, the EC50 [1] is listed as 0.25 nM.
In the case of “IK-Pqa-RHYLNLVTRQ (N-methyl)R(3-5 di F)Y [Example 8]”, the EC50 [1] is given as 0.36 nM.
In the case of “Adamtyl-IK-Pqa-RHYLNWVTRQ(N-methyl)RY (adamantyl-IK[Pqa]RHYLNWVTRQ[NMeR]Y; ends and bridges not checked) [Example 33]”, the EC50 [1] is listed as 2.9 nM.
In the case of “IK-Pqa-RHYLNLVTRQ(N-methyl)RF [Example 12]”, the EC50 [1] is given as 0.69 nM.
In the case of “IK-P qa-RHYLNLVTRQ (N-methyl)R(2,3.4,5,6-Penta-F)Phe [Example 18]”, the EC50 [1] is listed as 2.5 nM.
In the case of “IK-Pqa-RHYLNLVTRQ(N-methyl)R(2-6 di F)Y [Example 9]”, the EC50 [1] is given as 0.19 nM.
In the case of “Ac-IK-Pqa-RHYLNWVTRQ(N-methyl)R(2-6 di F)Y (Ac-IK[Pqa]RHYLNWVTRQ[NMeR][Tyr(2,6-F2)]) [Example 27]”, the EC50 [1] is given as 0.07 nM.
In the case of “IK-Pqa-RHYLNLVTRQ(N-methyl)R(3-F)Phe [Example 17]”, the EC50 [1] is listed as 0.75 nM.
For “IK-Pqa-RHYLNLVTRQ(N-methyl)R(4-CF3)Phe [Example 16]”, the EC50 [1] is listed as 3.55 nM.
In the case of “IK-Pqa-RHYLNLVTRQ(N-methyl)R(m-)Y [Example 6]”, the EC50 [1] is listed as 1.5 nM.
For “INle-Pqa-RHYLNWVTRQ(N-methyl)RY (IXXRHYLNWVTRQRY; Nle, Pqa linker, N-methyl Arg) [Example 26]”, the EC50 [1] is given as 0.108 nM.
For `CC[C@H](C)[C@H](NC(=O)[C@H](CCCCN)NC(=O)[C@H](CCC(=O)O)NC(=O)[C@H](CCCCN)NC(=O)[C@H](CO)NC(=O)[C@H](CCCCN)NC(=O)[C@H](CCCNC(=N)N)NC(=O)[C@H](Cc1ccccc1)NC(=O)[C@H](Cc1ccccc1)NC(=O)[C@H](CC(=O)O)NC(=O)CNC(=O)[C@H](CC(C)C)NC(=O)[C@H](CC(C)C)NC(=O)[C@H](C)NC(=O)[C@H](Cc1ccccc1)NC(=O)[C@H](CCCNC(=N)N)NC(=O)[C@H](CCCCN)NC(=O)[C@@H](N)CC(N)=O)C(=O)NCC(=O)N[C@@H](CCCCN)C(=O)N[C@@H](CCC(=O)O)C(=O)N[C@@H](Cc1ccccc1)C(=O)N[C@@H](CCCCN)C(=O)N[C@@H](CCCNC(=N)N)C(=O)N[C@H](C(=O)N[C@H](C(=O)N[C@@H](CCC(N)=O)C(=O)N[C@@H](CCCNC(=N)N)C(=O)N[C@H](C(=O)N[C@@H](CCCCN)C(=O)N[C@@H](CC(=O)O)C(=O)N[C@@H](Cc1ccccc1)C(=O)N[C@@H](CC(C)C)C(=O)N[C@@H](CCCNC(=N)N)C(=O)N[C@@H](CC(N)=O)C(=O)N[C@@H](CC(C)C)C(=O)N[C@H](C(=O)N1CCC[C@H]1C(=O)N[C@@H](CCCNC(=N)N)C(N)=O)C(C)C)[C@@H](C)CC)C(C)C)[C@@H](C)CC` [FALLv2] (H-NKRFALLGDFFRKSKEKIGKEFKRIVQRIKDFLRNLVPR-NH2; N-terminus and C-terminus assumed), the “activity upon conjugation to digoxygenin” value [2] was “similarly retained”.
